The values that follow come from the supplement of paper PMC5998384.

The subject of data set [1] is HeLa Kyoto. Nature of the data set: thermal stability score vs G1/S (z-score of summed log2 fold changes over temperatures); higher = more thermally stable than in G1/S.
For data set [2], the system named is HeLa Kyoto. Kind of data set: melting temperature (median over replicates), in situ; higher = more thermally stable.
In data set [3] the test system is HeLa Kyoto. Kind of data set: solubility change mitosis vs G1/S (difference of NP-40 vs SDS log2 ratios) (log2 ratio difference); higher = more soluble in mitosis.
Data set [4] relates to HeLa Kyoto. Kind of data set: solubility in G1/S (NP-40 vs SDS abundance) (log2 ratio); higher = more soluble. Particulars: cell cycle stage: G1/S.
The mark [5] stands for this setting: cell cycle stage: early G1 (4.5 h after nocodazole release).
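Throughout, for melting temperature (median over replicates), in situ: HeLa Kyoto cells synchronized by double thymidine or nocodazole block, proteins quantified by TMT10plex mass spectrometry, three independent biological replicates.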
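Throughout, for solubility change mitosis vs G1/S (difference of NP-40 vs SDS log2 ratios): synchronized HeLa Kyoto cells (double thymidine block for G1/S, nocodazole release for mitosis), protein amounts in NP-40 versus SDS lysates quantified by mass spectrometry, three biological replicates.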
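Throughout, for solubility in G1/S (NP-40 vs SDS abundance): HeLa Kyoto cells arrested at G1/S by double thymidine block, proteins quantified by TMT10plex mass spectrometry in mild NP-40 versus SDS extracts, three biological replicates.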
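Throughout, for thermal stability score vs G1/S (z-score of summed log2 fold changes over temperatures): synchronized HeLa Kyoto cells, proteins quantified by TMT10plex mass spectrometry, three biological replicates, mitosis taken 0.5 h after nocodazole release, G1/S directly after double thymidine block.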

On to “MSRYLLPLSALGTVAGAAVLLKDYVTGGACPSKATIPGKTVIVTGANTGIGKQTALELARRGGNIILACRDMEKCEAAAKDIRGETLNHHVNARHLDLASLKSIREFAAKIIEEEERVDILINNAGVMRCPHWTTEDGFEMQFGVNHLGHFLLTNLLLDKLKASAPSRIINLSSLAHVAGHIDFDDLNWQTRKYNTKAAYCQSKLAIVLFTKELSRRLQGSGVTVNALHPGVARTELGRHTGIHGSTFSSTTLGPIFWLLVKSPELAAQPSTYLAVAEELADVSGKYFDGLKQKAPAPEAEDEEVARRLWAESARLVGLEAPSVREQPLPR [RDH13]”, for which the thermal stability score with HeLa Kyoto [1] (setting [5]) was -0.911; with HeLa Kyoto [1] (cell cycle stage: mitosis), -0.156. Further, the melting temperature in the data set with HeLa Kyoto [2] (cell cycle stage: G1/S) came to 51.1 °C; in the data set on HeLa Kyoto [2] (cell cycle stage: mitosis), 51.6 °C. In addition, the “solubility change mitosis (log2)” value in the data set on HeLa Kyoto [3] came to 0.0735. Further, the “solubility in G1/S (log2)” value in the data set with HeLa Kyoto [4] stood at 0.415.
With MYO5A, the thermal stability score in the data set with HeLa Kyoto [1] (setting [5]) is 0.0646; with HeLa Kyoto [1] (cell cycle stage: mitosis) it was -0.152. For the same substance, the values for the melting temperature with HeLa Kyoto [2] (cell cycle stage: G1/S) and with HeLa Kyoto [2] (cell cycle stage: mitosis) were 51.1 °C and 49.6 °C, respectively. Further, the “solubility change mitosis (log2)” value in the data set with HeLa Kyoto [3] was found to be 0.167. Besides, the “solubility in G1/S (log2)” value in the data set with HeLa Kyoto [4] is -0.679.
For the substance “MAAGIVASRRLRDLLTRRLTGSNYPGLSISLRLTGSSAQEEASGVALGEAPDHSYESLRVTSAQKHVLHVQLNRPNKRNAMNKVFWREMVECFNKISRDADCRAVVISGAGKMFTAGIDLMDMASDILQPKGDDVARISWYLRDIITRYQETFNVIERCPKPVIAAVHGGCIGGGVDLVTACDIRYCAQDAFFQVKEVDVGLAADVGTLQRLPKVIGNQSLVNELAFTARKMMADEALGSGLVSRVFPDKEVMLDAALALAAEISSKSPVAVQSTKVNLLYSRDHSVAESLNYVASWNMSMLQTQDLVKSVQATTENKELKTVTFSKL [ECH1]”, the thermal stability score in the data set on HeLa Kyoto [1] (setting [5]) was -1.52; in the data set on HeLa Kyoto [1] (cell cycle stage: mitosis), -2.22. Besides, the melting temperature in the data set on HeLa Kyoto [2] (cell cycle stage: G1/S) was found to be 53.4 °C; in the data set on HeLa Kyoto [2] (cell cycle stage: mitosis), 53.5 °C. For the same substance, the “solubility change mitosis (log2)” value in the data set on HeLa Kyoto [3] is -0.00393. For the same substance, the “solubility in G1/S (log2)” value in the data set with HeLa Kyoto [4] worked out at 0.165.
In the case of “MATPSAAFEALMNGVTSWDVPEDAVPCELLLIGEASFPVMVNDMGQVLIAASSYGRGRLVVVSHEDYLVEAQLTPFLLNAVGWLCSSPGAPIGVHPSLAPLAKILEGSGVDAKVEPEVKDSLGVYCIDAYNETMTEKLVKFMKCGGGLLIGGQAWDWANQGEDERVLFTFPGNLVTSVAGIYFTDNKGDTSFFKVSKKMPKIPVLVSCEDDLSDDREELLHGISELDISNSDCFPSQLLVHGALAFPLGLDSYHGCVIAAARYGRGRVVVTGHKVLFTVGKLGPFLLNAVRWLDGGRRGKVVVQTELRTLSGLLAVGGIDTSIEPNLTSDASVYCFEPVSEVGVKELQEFVAEGGGLFVGAQAWWWAFKNPGVSPLARFPGNLLLNPFGISITSQSLNPGPFRTPKAGIRTYHFRSTLAEFQVIMGRKRGNVEKGWLAKLGPDGAAFLQIPAEEIPAYMSVHRLLRKLLSRYRLPVATRENPVINDCCRGAMLSLATGLAHSGSDLSLLVPEIEDMYSSPYLRPSESPITVEVNCTNPGTRYCWMSTGLYIPGRQIIEVSLPEAAASADLKIQIGCHTDDLTRASKLFRGPLVINRCCLDKPTKSITCLWGGLLYIIVPQNSKLGSVPVTVKGAVHAPYYKLGETTLEEWKRRIQENPGPWGELATDNIILTVPTANLRTLENPEPLLRLWDEVMQAVARLGAEPFPLRLPQRIVADVQISVGWMHAGYPIMCHLESVQELINEKLIRTKGLWGPVHELGRNQQRQEWEFPPHTTEATCNLWCVYVHETVLGIPRSRANIALWPPVREKRVRIYLSKGPNVKNWNAWTALETYLQLQEAFGWEPFIRLFTEYRNQTNLPTENVDKMNLWVKMFSHQVQKNLAPFFEAWAWPIQKEVATSLAYLPEWKENIMKLYLLTQMPH [TCAF1]”, the thermal stability score in the data set on HeLa Kyoto [1] (setting [5]) was 0.502; in the data set with HeLa Kyoto [1] (cell cycle stage: mitosis), 2.06. Moreover, the melting temperature with HeLa Kyoto [2] (cell cycle stage: G1/S) was determined as 49.9 °C; with HeLa Kyoto [2] (cell cycle stage: mitosis) it was 49.8 °C. Moreover, the “solubility change mitosis (log2)” value in the data set on HeLa Kyoto [3] was -0.185. Further, the “solubility in G1/S (log2)” value with HeLa Kyoto [4] is -0.143.
On to “MPRAPAPLYACLLGLCALLPRLAGLNICTSGSATSCEECLLIHPKCAWCSKEDFGSPRSITSRCDLRANLVKNGCGGEIESPASSFHVLRSLPLSSKGSGSAGWDVIQMTPQEIAVNLRPGDKTTFQLQVRQVEDYPVDLYYLMDLSLSMKDDLDNIRSLGTKLAEEMRKLTSNFRLGFGSFVDKDISPFSYTAPRYQTNPCIGYKLFPNCVPSFGFRHLLPLTDRVDSFNEEVRKQRVSRNRDAPEGGFDAVLQAAVCKEKIGWRKDALHLLVFTTDDVPHIALDGKLGGLVQPHDGQCHLNEANEYTASNQMDYPSLALLGEKLAENNINLIFAVTKNHYMLYKNFTALIPGTTVEILDGDSKNIIQLIINAYNSIRSKVELSVWDQPEDLNLFFTATCQDGVSYPGQRKCEGLKIGDTASFEVSLEARSCPSRHTEHVFALRPVGFRDSLEVGVTYNCTCGCSVGLEPNSARCNGSGTYVCGLCECSPGYLGTRCECQDGENQSVYQNLCREAEGKPLCSGRGDCSCNQCSCFESEFGKIYGPFCECDNFSCARNKGVLCSGHGECHCGECKCHAGYIGDNCNCSTDISTCRGRDGQICSERGHCLCGQCQCTEPGAFGEMCEKCPTCPDACSTKRDCVECLLLHSGKPDNQTCHSLCRDEVITWVDTIVKDDQEAVLCFYKTAKDCVMMFTYVELPSGKSNLTVLREPECGNTPNAMTILLAVVGSILLVGLALLAIWKLLVTIHDRREFAKFQSERSRARYEMASNPLYRKPISTHTVDFTFNKFNKSYNGTVD [ITGB5]”, for which the values for the thermal stability score in the data set on HeLa Kyoto [1] (setting [5]) and in the data set on HeLa Kyoto [1] (cell cycle stage: mitosis) were 0.876 and 3.15, respectively. The melting temperature in the data set on HeLa Kyoto [2] (cell cycle stage: G1/S) worked out at 56 °C; with HeLa Kyoto [2] (cell cycle stage: mitosis), 56.7 °C. The “solubility change mitosis (log2)” value in the data set on HeLa Kyoto [3] came to 0.0246. For the same substance, the “solubility in G1/S (log2)” value in the data set on HeLa Kyoto [4] was -0.15.
